Tests used:
[1] = system: GST-ATF2 fusion protein (Cell Signaling)
[2] = target: His/TF-tagged-XBP1s (recombinant XBP1s fusion protein purified from E. coli) (UniProt O35426)

Question: With “activated recombinant p38α MAPK (Cell Signaling)” as the substance, how does the “in vitro kinase assay, phosphorylation of the control substrate” value [1] read?
Answer: activated recombinant p38 MAPK is fully functional and phosphorylates ATF2

Question: And the “in vitro kinase assay, immunoblotting with phospho-specific antibodies for p-XBP1s^Thr48 and p-XBP1s^Ser61” value [2]?
Answer: p38 MAPK directly phosphorylates XBP on Thr48 and Ser61 residues in the in vitro kinase assay

Question: What about the “in vitro kinase assay, incorporated 32P (phosphorylation) by autoradiography” value [2] of the same substance?
Answer: Incubation of XBP1s with activated recombinant p38 MAPK significantly increased phosphorylation of XBP1s
